Data from IntAct's records for PubMed 22745600.

B1: Pre-B-cell leukemia transcription factor 1 (Mus musculus), P41778 (parent)
chain: MDEQPRLMHSHAGVGMAGHPGLSQHLQDGAGGTEGEGGRKQDIGDILQQIMTITDQSLDEAQARKHALNCHRMKPALFNVLCEIKEKTVLSIRGAQEEEPTDPQLMRLDNMLLAEGVAGPEKGGGSAAAAAAAAASGGAGSDNSVEHSDYRAKLSQIRQIYHTELEKYEQACNEFTTHVMNLLREQSRTRPISPKEIERMVSIIHRKFSSIQMQLKQSTCEAVMILRSRFLDARRKRRNFNKQATEILNEYFYSHLSNPYPSEEAKEELAKKCGITVSQVSNWFGNKRIRYKKNIGKFQEEANIYAAKTAVTATNVSAHGSQANSPSTPNSAGSSSSFNMSNSGDLFMSVQSLNGDSYQGAQVGANVQSQVDTLRHVISQTGGYSDGLAASQMYSPQGISANGGWQDATTPSSVTSPTEGPGSVHSDTSN
B2: Homeobox protein extradenticle (Drosophila melanogaster (Fruit fly)), P40427 (parent)
chain: MEDPNRMLAHTGGMMAPQGYGLSGQDDGQNAGSENEVRKQKDIGEILQQIMSISEQSLDEAQARKHTLNCHRMKPALFSVLCEIKEKTVLSIRNTQEEEPPDPQLMRLDNMLIAEGVAGPEKGGGGAAAASAAAASQGGSLSIDGADNAIEHSDYRAKLAQIRQIYHQELEKYEQACNEFTTHVMNLLREQSRTRPITPKEIERMVQIIHKKFSSIQMQLKQSTCEAVMILRSRFLDARRKRRNFSKQASEILNEYFYSHLSNPYPSEEAKEELARKCGITVSQVSNWFGNKRIRYKKNIGKAQEEANLYAAKKAAGASPYSMAGPPSGTTTPMMSPAPPQDSMGYPMGSGGYDQQQPYDNSMGGYDPNLHQDLSP

Tests used:
hxb8_mouse Hoxb8, P09632 = variants of: B1; details: with hxb8_mouse Hoxb8, P09632
Chain of hxb8_mouse Hoxb8, P09632 (P09632 whole entry): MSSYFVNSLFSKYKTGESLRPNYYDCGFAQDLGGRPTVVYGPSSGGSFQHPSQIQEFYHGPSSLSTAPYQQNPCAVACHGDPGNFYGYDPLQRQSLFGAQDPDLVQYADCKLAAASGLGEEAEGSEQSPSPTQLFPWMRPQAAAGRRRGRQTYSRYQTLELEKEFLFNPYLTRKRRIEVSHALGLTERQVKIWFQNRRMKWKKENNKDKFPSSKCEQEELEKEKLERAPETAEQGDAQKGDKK

lab_drome lab, P10105 = variants of: B2; details: with lab_drome lab
Chain of lab_drome lab, P10105 (P10105 whole entry): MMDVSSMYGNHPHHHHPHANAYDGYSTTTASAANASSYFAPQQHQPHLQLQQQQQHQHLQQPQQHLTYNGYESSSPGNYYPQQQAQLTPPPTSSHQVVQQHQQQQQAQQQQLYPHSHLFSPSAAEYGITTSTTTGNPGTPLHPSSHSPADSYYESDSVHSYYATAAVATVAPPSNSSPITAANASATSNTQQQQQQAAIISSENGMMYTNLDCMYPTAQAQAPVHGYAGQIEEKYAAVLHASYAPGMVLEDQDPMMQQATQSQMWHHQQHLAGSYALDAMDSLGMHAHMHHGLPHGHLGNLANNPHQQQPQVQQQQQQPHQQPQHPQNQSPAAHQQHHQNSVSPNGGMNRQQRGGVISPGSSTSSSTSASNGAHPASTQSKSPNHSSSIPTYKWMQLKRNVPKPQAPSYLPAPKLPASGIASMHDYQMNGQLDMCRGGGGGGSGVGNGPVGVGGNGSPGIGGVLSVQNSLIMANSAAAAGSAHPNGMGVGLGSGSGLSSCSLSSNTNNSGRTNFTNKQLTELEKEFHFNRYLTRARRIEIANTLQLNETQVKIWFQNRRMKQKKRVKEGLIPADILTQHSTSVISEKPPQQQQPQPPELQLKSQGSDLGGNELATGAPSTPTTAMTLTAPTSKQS

abdb_drome Abd-B, P09087 = variants of: B2; details: with abdb_drome Abd-B
ubx_drome Ubx, P83949 = variants of: B2; details: with ubx_drome Ubx
Chain of ubx_drome Ubx, P83949 (P83949 whole entry): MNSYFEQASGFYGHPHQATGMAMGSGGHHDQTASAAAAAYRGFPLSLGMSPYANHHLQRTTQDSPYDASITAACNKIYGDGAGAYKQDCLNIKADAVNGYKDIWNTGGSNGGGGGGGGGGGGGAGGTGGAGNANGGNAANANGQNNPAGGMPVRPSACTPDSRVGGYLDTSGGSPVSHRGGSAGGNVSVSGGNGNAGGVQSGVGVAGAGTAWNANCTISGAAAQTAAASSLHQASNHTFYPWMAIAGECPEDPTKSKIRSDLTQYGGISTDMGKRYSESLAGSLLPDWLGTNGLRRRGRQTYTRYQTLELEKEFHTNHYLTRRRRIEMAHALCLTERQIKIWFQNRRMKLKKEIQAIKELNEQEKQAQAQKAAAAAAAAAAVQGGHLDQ

abda_drome abd-A, P29555 = variants of: B2; details: with abda_drome abd-A
Chain of abda_drome abd-A, P29555 (P29555 whole entry): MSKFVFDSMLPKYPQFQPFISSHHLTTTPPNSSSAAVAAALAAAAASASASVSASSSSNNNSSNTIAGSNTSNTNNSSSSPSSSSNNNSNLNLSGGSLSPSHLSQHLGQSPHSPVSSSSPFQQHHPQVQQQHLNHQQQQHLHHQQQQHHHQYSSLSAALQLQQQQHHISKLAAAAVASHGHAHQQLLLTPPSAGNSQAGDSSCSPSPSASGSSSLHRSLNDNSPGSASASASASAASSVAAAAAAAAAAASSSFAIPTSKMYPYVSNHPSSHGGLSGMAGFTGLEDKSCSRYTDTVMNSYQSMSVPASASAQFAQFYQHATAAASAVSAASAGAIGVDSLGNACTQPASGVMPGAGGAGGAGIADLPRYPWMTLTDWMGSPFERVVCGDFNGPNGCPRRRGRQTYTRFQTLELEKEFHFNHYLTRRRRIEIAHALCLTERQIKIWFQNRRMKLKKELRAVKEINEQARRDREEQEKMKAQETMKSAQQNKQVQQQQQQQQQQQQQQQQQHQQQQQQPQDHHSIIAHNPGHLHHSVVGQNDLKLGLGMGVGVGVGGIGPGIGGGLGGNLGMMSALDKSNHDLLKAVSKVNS

Row | effect of a mutation on the interaction (hxb8_mouse Hoxb8, P09632) | effect of a mutation on the interaction (lab_drome lab, P10105) | effect of a mutation on the interaction (abdb_drome Abd-B, P09087) | effect of a mutation on the interaction (ubx_drome Ubx, P83949) | effect of a mutation on the interaction (abda_drome abd-A, P29555) | Variant
1 | disrupting interaction strength | – | – | – | – | MDEQPRLMHSHAGVGMAGHPGLSQHLQDGAGGTEGEGGRKQDIGDILQQIMTITDQSLDEAQARKHALNCHRMKPALFNVLCEIKEKTVLSIRGAQEEEPTDPQLMRLDNMLLAEGVAGPEKGGGSAAAAAAAAASGGAGSDNSVEHSDYRAKLSQIRQIYHTELEKYEQACNEFTTHVMNLLREQSRTRPISPKEIERMVSIIHRKFSSIQMQLKQSTCEAVMILRSRFLDARRKRRNFNKQATEILNEYFYSHLSNPYPSEEAKEELAKKCGITVSQVSAWFGNKRIRYKKNIGKFQEEANIYAAKTAVTATNVSAHGSQANSPSTPNSAGSSSSFNMSNSGDLFMSVQSLNGDSYQGAQVGANVQSQVDTLRHVISQTGGYSDGLAASQMYSPQGISANGGWQDATTPSSVTSPTEGPGSVHSDTSN [N282A]
2 | – | decreasing interaction strength | disrupting interaction strength | decreasing interaction strength | decreasing interaction strength | MEDPNRMLAHTGGMMAPQGYGLSGQDDGQNAGSENEVRKQKDIGEILQQIMSISEQSLDEAQARKHTLNCHRMKPALFSVLCEIKEKTVLSIRNTQEEEPPDPQLMRLDNMLIAEGVAGPEKGGGGAAAASAAAASQGGSLSIDGADNAIEHSDYRAKLAQIRQIYHQELEKYEQACNEFTTHVMNLLREQSRTRPITPKEIERMVQIIHKKFSSIQMQLKQSTCEAVMILRSRFLDARRKRRNFSKQASEILNEYFYSHLSNPYPSEEAKEELARKCGITVSQVSAWFGNKRIRYKKNIGKAQEEANLYAAKKAAGASPYSMAGPPSGTTTPMMSPAPPQDSMGYPMGSGGYDQQQPYDNSMGGYDPNLHQDLSP [N287A]
